Measured values from patent publication US12679878B2, “CRF2 receptor agonists and their use in therapy” (SANOFI, priority 2020, dated 2026).
Each block holds one binder with its values, some of them ahead of it. Starred links: 1 amine or outer side, 2 acyl side, 3 side chain; linkers in the order of their positions; H or OH if unused. Non-standard residues stand in square brackets, D forms with d. Groups on a side chain read outwards from the residue. No end group written: not given here. *: point of attachment. C18 diacid = O=C(O)CCCCCCCCCCCCCCCCC(=O)*; γGlu = O=C(O)[C@H](CCC(=O)[*:2])N[*:1]; AEEA = NCCOCCOCC(=O)O; Aib = CC(C)(N)C(=O)O

Target: human corticotropin-releasing factor 2α (CRF2 α receptor) (human), Q13324
Test: cell-based or functional assay

Chain of human corticotropin-releasing factor 2α (CRF2 α receptor) (human), Q13324 (Q13324 20-411): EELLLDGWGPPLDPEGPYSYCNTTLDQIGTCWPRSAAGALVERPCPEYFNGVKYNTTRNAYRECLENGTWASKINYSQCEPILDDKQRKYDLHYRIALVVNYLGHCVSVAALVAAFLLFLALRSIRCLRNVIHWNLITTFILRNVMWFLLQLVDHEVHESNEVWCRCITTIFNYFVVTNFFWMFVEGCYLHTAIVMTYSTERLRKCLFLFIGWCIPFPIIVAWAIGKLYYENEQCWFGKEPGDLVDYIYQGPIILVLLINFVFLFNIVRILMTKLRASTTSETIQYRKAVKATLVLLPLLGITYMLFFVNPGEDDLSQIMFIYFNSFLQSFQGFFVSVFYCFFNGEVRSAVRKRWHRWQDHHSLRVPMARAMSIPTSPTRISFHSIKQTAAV

EC50 [nM], 0% HSA: 0.04 nM
EC50 [nM], 0.1% HSA: 1.27 nM
B1: SEQ ID NO: 140 (peptide)
peptide: IVLSLD[dV]PIKLK([AEEA-AEEA-γGlu-C18 diacid])QILLEQARQK[Aib]QRAQAEKNKRILERV-NH2
modifications: N-terminus assumed
SMILES: CC[C@H](C)[C@H](N)C(=O)N[C@H](C(=O)N[C@@H](CC(C)C)C(=O)N[C@@H](CO)C(=O)N[C@@H](CC(C)C)C(=O)N[C@@H](CC(=O)O)C(=O)N[C@@H](C(=O)N1CCC[C@H]1C(=O)N[C@H](C(=O)N[C@@H](CCCCN)C(=O)N[C@@H](CC(C)C)C(=O)N[C@@H](CCCCNC(=O)COCCOCCNC(=O)COCCOCCNC(=O)CC[C@H](NC(=O)CCCCCCCCCCCCCCCCC(=O)O)C(=O)O)C(=O)N[C@@H](CCC(N)=O)C(=O)N[C@H](C(=O)N[C@@H](CC(C)C)C(=O)N[C@@H](CC(C)C)C(=O)N[C@@H](CCC(=O)O)C(=O)N[C@@H](CCC(N)=O)C(=O)N[C@@H](C)C(=O)N[C@@H](CCCNC(=N)N)C(=O)N[C@@H](CCC(N)=O)C(=O)N[C@@H](CCCCN)C(=O)NC(C)(C)C(=O)N[C@@H](CCC(N)=O)C(=O)N[C@@H](CCCNC(=N)N)C(=O)N[C@@H](C)C(=O)N[C@@H](CCC(N)=O)C(=O)N[C@@H](C)C(=O)N[C@@H](CCC(=O)O)C(=O)N[C@@H](CCCCN)C(=O)N[C@@H](CC(N)=O)C(=O)N[C@@H](CCCCN)C(=O)N[C@@H](CCCNC(=N)N)C(=O)N[C@H](C(=O)N[C@@H](CC(C)C)C(=O)N[C@@H](CCC(=O)O)C(=O)N[C@@H](CCCNC(=N)N)C(=O)N[C@H](C(N)=O)C(C)C)[C@@H](C)CC)[C@@H](C)CC)[C@@H](C)CC)C(C)C)C(C)C

EC50 [nM], 0% HSA: 0.03 nM
EC50 [nM], 0.1% HSA: 0.97 nM
B2: SEQ ID NO: 141 (peptide)
peptide: IVLSLD[dV]PIKLK([AEEA-AEEA-γGlu-C18 diacid])QILLKQARQK[Aib]QRAQAEKNKRILERV-NH2
modifications: N-terminus assumed
SMILES: CC[C@H](C)[C@H](N)C(=O)N[C@H](C(=O)N[C@@H](CC(C)C)C(=O)N[C@@H](CO)C(=O)N[C@@H](CC(C)C)C(=O)N[C@@H](CC(=O)O)C(=O)N[C@@H](C(=O)N1CCC[C@H]1C(=O)N[C@H](C(=O)N[C@@H](CCCCN)C(=O)N[C@@H](CC(C)C)C(=O)N[C@@H](CCCCNC(=O)COCCOCCNC(=O)COCCOCCNC(=O)CC[C@H](NC(=O)CCCCCCCCCCCCCCCCC(=O)O)C(=O)O)C(=O)N[C@@H](CCC(N)=O)C(=O)N[C@H](C(=O)N[C@@H](CC(C)C)C(=O)N[C@@H](CC(C)C)C(=O)N[C@@H](CCCCN)C(=O)N[C@@H](CCC(N)=O)C(=O)N[C@@H](C)C(=O)N[C@@H](CCCNC(=N)N)C(=O)N[C@@H](CCC(N)=O)C(=O)N[C@@H](CCCCN)C(=O)NC(C)(C)C(=O)N[C@@H](CCC(N)=O)C(=O)N[C@@H](CCCNC(=N)N)C(=O)N[C@@H](C)C(=O)N[C@@H](CCC(N)=O)C(=O)N[C@@H](C)C(=O)N[C@@H](CCC(=O)O)C(=O)N[C@@H](CCCCN)C(=O)N[C@@H](CC(N)=O)C(=O)N[C@@H](CCCCN)C(=O)N[C@@H](CCCNC(=N)N)C(=O)N[C@H](C(=O)N[C@@H](CC(C)C)C(=O)N[C@@H](CCC(=O)O)C(=O)N[C@@H](CCCNC(=N)N)C(=O)N[C@H](C(N)=O)C(C)C)[C@@H](C)CC)[C@@H](C)CC)[C@@H](C)CC)C(C)C)C(C)C
